Measurements reported in the RNAGym collection of RNA variant scans (doi:10.7554/elife.80360).

B1: Hammerhead Ribozyme (parent)
chain: ACCGGAUGUGCUUUCCGGUCUGAUGAGUCCGUGAGGACGAAACAG

Variants of: B1
Assay: self-cleavage, relative activity (ratio to wild type); higher = more cleavage; co-transcriptional

Variant	self-cleavage
ACCGGAUGUGCUUUCCGGUCUGAUGAGUACGUGAGGACCAAACAG [C29A G39C]	0.326
ACCGGAUGUGCUUUCCGGUCUGAUGACUCCGUGAUGACGAAACAG [G27C G35U]	0.402
AACGGAUGUGCUUUCCGGUCUGAUGAGUCCGUGAGGACGAAUCAG [C2A A42U]	0.332
ACCGGAUGUGCUUUCCCGUCUGAUGAGUCCGUGAGGACGCAACAG [G17C A40C]	0.328
ACCGGAUGUGCCUUCCGGUCUGAUGACUCCGUGAGGACGAAACAG [U12C G27C]	0.669
ACCGGAUGUGCUUUCCGGUAUGAUGAGUCCGUGAGGACGAAACUG [C20A A44U]	0.323
ACCGGAUGUGCUUUCCGGUCUGAUGAAUCCGUGACGACGAAACAG [G27A G35C]	0.438
ACCGGAUGUGCUUUCCGGUCUCACGAGUCCGUGAGGACGAAACAG [G22C U24C]	0.348
ACCGGAUGUGCUUUCCGGUCUGAUGAGUCCGCGAGGACGAAACGG [U32C A44G]	1.32
ACCGGAUGUGCUUUCAGGUCUGAUGAGUCCGUGGGGACGAAACAG [C16A A34G]	1.17
ACCGGAUGUGCUUUCCGUUCUGAUGAGUCCGUCAGGACGAAACAG [G18U G33C]	0.602
ACCGGAUGUGCUUUCCGGUCUGGUGAGUCCGUGAGGACGGAACAG [A23G A40G]	0.306
ACCGGAUGUGCUUUCUGGUCUGAUGAGUCCGUGAGGACCAAACAG [C16U G39C]	0.391
ACCGGAUGUGCUUUCCUGUCUGAUGAGUCCGUGAGAACGAAACAG [G17U G36A]	0.621
ACCGGAUUUGCUUUCCGGUCUGAUGAGUCCGUGAGGACGAACCAG [G8U A42C]	0.422
ACCGGAUGUGCUUUCCGGUGUGAUGAGUCCCUGAGGACGAAACAG [C20G G31C]	0.321
ACCGGAUGUGCUUUCCGUUCUGAUGAGUCUGUGAGGACGAAACAG [G18U C30U]	0.849
ACCGGUUGUGCUUUUCGGUCUGAUGAGUCCGUGAGGACGAAACAG [A6U C15U]	0.708
ACCGGAUGUGCUUUCCGGUUUGAUGAGUCCGUGAGGACGACACAG [C20U A41C]	0.373
ACCGGAUGGGCUUUCCGGUAUGAUGAGUCCGUGAGGACGAAACAG [U9G C20A]	0.331
ACCGGAUGUGCUUUCCGGGCUGGUGAGUCCGUGAGGACGAAACAG [U19G A23G]	0.3
ACCGGAUGUUCUUACCGGUCUGAUGAGUCCGUGAGGACGAAACAG [G10U U14A]	0.822
ACCGCCUGUGCUUUCCGGUCUGAUGAGUCCGUGAGGACGAAACAG [G5C A6C]	0.423

Variant	self-cleavage
ACCGGAUGUGCUUUCCGGUCUGAUGACUCCGUAAGGACGAAACAG [G27C G33A]	0.864
ACCGUAUGUGCUUUCCGGUCUGAUGAGGCCGUGAGGACGAAACAG [G5U U28G]	0.376
ACCGGAUGUGCAUUCCGGUCUGAUGAGUCCGUGGGGACGAAACAG [U12A A34G]	0.904
ACCGGACGUGCUAUCCGGUCUGAUGAGUCCGUGAGGACGAAACAG [U7C U13A]	1.22
ACCGGACGUGCUGUCCGGUCUGAUGAGUCCGUGAGGACGAAACAG [U7C U13G]	0.7
AUCGGAUGUGCUUUCCGGUCUGAUGAGUCCGUGAGGACUAAACAG [C2U G39U]	0.359
ACCGGAUGUGCUUUCCGGUCUGAUGAGUCCGUGAGGACUAAGCAG [G39U A42G]	0.342
ACCGGAUGUGCUUUCCGGUCUGCUGAGUCCAUGAGGACGAAACAG [A23C G31A]	0.68
ACCGGAGGUGCUUUCCGGUCUGAUGAGUCCGUGAGGACGCAACAG [U7G A40C]	0.396
ACCGGAUGUGCUUUCCGAUCUGAUUAGUCCGUGAGGACGAAACAG [G18A G25U]	0.348
AACGGAAGUGCUUUCCGGUCUGAUGAGUCCGUGAGGACGAAACAG [C2A U7A]	0.457
ACCGGAUGUGCUUUCCGGUCUGAUCAGUCCGUGAGGACGAAAGAG [G25C C43G]	0.235
ACCGGAUGUGCUUUACGGUCUGAUGAGUCCGUGAGGACGAAAUAG [C15A C43U]	0.415
AUCGGAUGUGCUUUCCGGUCUGAUGAGUCCGUCAGGACGAAACAG [C2U G33C]	1.06
ACCGGAUGUGCUUUACGGUCUGAUGAGUCCAUGAGGACGAAACAG [C15A G31A]	1.05
ACCGGAUGUGCUUUCCGGUCUGAUGAGUCCAUGAGGACGGAACAG [G31A A40G]	0.417
ACCGGAUGUGCUUUCCGGUCUGAUGAGUCCUUUAGGACGAAACAG [G31U G33U]	1.23
ACCGGAUGUGCUUUCCGGUCUGAUGAGUCCGUGAGGACAAAAUAG [G39A C43U]	0.341
ACCGGAUGUGCUUUGCGGUCUGAUGAGUCCGUGAGGACGAAGCAG [C15G A42G]	0.276
ACCGGAUGUGCUUUCCGGUCUGAUGAUUCCAUGAGGACGAAACAG [G27U G31A]	0.529
ACCGGAUGUGCUUUCCGGUCUGAGGAGUCCGUGAGGACGAAAGAG [U24G C43G]	0.337
ACCGGAUGUGCUAUCCGGUCUGAUGAGUCCGUAAGGACGAAACAG [U13A G33A]	1.29
CCCGGAUGUGCUUUCCGGUCUGAUGACUCCGUGAGGACGAAACAG [A1C G27C]	0.357

Variant	self-cleavage
ACCGGAUGUGCUUUCCGAUCUGAUGAGUCCGUGAGGACGAAUCAG [G18A A42U]	0.338
ACCAGAUGUGCUUUCCGGUCUGAUGAGUCCGUCAGGACGAAACAG [G4A G33C]	0.549
ACCGAAUGUGCUUUCCGGUCUGAUGAGUCCUUGAGGACGAAACAG [G5A G31U]	1.61
ACCGGAUGUGCUUUCCGGCCUGAUGAGUCCGUGAGGACGAACCAG [U19C A42C]	0.237
ACCGGAUGUGCUUUCCGGUCUGAUGAGUCCAUGAUGACGAAACAG [G31A G35U]	0.875
ACCGGAUGUGCUUUCCGGUCGGAUGGGUCCGUGAGGACGAAACAG [U21G A26G]	0.343
AUGGGAUGUGCUUUCCGGUCUGAUGAGUCCGUGAGGACGAAACAG [C2U C3G]	0.319
ACCGAAUGUGCAUUCCGGUCUGAUGAGUCCGUGAGGACGAAACAG [G5A U12A]	1.22
ACCGGAUGUGCUUUCCGGUCUGAUGAGUCCGAGAGGACGAAACAG [U32A]	0.949
ACCGGAUGUGCUUCCCGGUCUGAUGGGUCCGUGAGGACGAAACAG [U14C A26G]	0.359
ACCGAAUGUGCUUGCCGGUCUGAUGAGUCCGUGAGGACGAAACAG [G5A U14G]	1.41
ACCGGAUGUGCUUUUCGAUCUGAUGAGUCCGUGAGGACGAAACAG [C15U G18A]	0.554
ACCGGAUGUGCUUUUCGCUCUGAUGAGUCCGUGAGGACGAAACAG [C15U G18C]	0.491
ACAGGAUGGGCUUUCCGGUCUGAUGAGUCCGUGAGGACGAAACAG [C3A U9G]	0.327
ACCGGAUGUGCUUUCCGGUCUGAUAAGUCCGUGAGGACGAUACAG [G25A A41U]	0.275
ACCGUAUGGGCUUUCCGGUCUGAUGAGUCCGUGAGGACGAAACAG [G5U U9G]	0.523
AGCGGAAGUGCUUUCCGGUCUGAUGAGUCCGUGAGGACGAAACAG [C2G U7A]	0.364
ACCGGAUGUGCUUUCCGGUCUGAUGAGUCCGUGAGGUCGAAAGAG [A37U C43G]	0.271
ACCGGAUGUGCUUUCAGGUCGGAUGAGUCCGUGAGGACGAAACAG [C16A U21G]	0.316
CCCGGAUGUGCUUUCCGGUCUGAUGAGUCCGUGAGGACGAAAUAG [A1C C43U]	0.5
ACCGGAUGUGCGUUCCGGUCUGAUGAGUCCGUGAGGACUAAACAG [U12G G39U]	0.319
ACCGGAUGUGGUUUCCGGUCUGCUGAGUCCGUGAGGACGAAACAG [C11G A23C]	0.549
ACCAGAUGUGCUUUCCGGUCUGAUGAGUCCUUGAGGACGAAACAG [G4A G31U]	0.678

Variant	self-cleavage
ACCGGAUGUGCUUUCCGGUCUGAUGAGUCCGUGAGGACGCGACAG [A40C A41G]	0.307
ACCGGAUGUGCUUUCCGAUCUGAUGAGUCCGUGAGGACGAAACUG [G18A A44U]	0.433
ACCGGAUGUGGUUUACGGUCUGAUGAGUCCGUGAGGACGAAACAG [C11G C15A]	0.824
ACCGGAUGAGCUUUCCGGUCUGAUGAGUCCGUGAGGAGGAAACAG [U9A C38G]	0.682
ACCGAAUGUGCUUUCCGGUCUUAUGAGUCCGUGAGGACGAAACAG [G5A G22U]	0.325
ACCGGAUGUGCUUUCCGGUCUGAGGAGUCCGUGAGGACGGAACAG [U24G A40G]	0.392
ACCGGAUUUGCUUUCCGGCCUGAUGAGUCCGUGAGGACGAAACAG [G8U U19C]	0.649
ACCGGAUGGGCUUUCCUGUCUGAUGAGUCCGUGAGGACGAAACAG [U9G G17U]	0.316
ACCGGAUGUGCUUUACGGUCUGAUGAGUCCGUGCGGACGAAACAG [C15A A34C]	1.09
CCCGGAUGUGCUGUCCGGUCUGAUGAGUCCGUGAGGACGAAACAG [A1C U13G]	0.556
CCCGGAUGUGCUUUCCGGUCUGAUGAGUCCGUGAGGACGAAACAC [A1C G45C]	0.441
ACAGGAUGUGCUUUCCGGUCUGAUGAGUCCGUGAGGACGAUACAG [C3A A41U]	0.259
ACCGGACGUGCUUUCCGGUCCGAUGAGUCCGUGAGGACGAAACAG [U7C U21C]	0.403
ACCGGAUGUGCUUUCCGGUCUGAUGAGUCCGUUAGGACCAAACAG [G33U G39C]	0.464
ACCGGAUGUGCUUUUCGGUCUGAUGAGUCGGUGAGGACGAAACAG [C15U C30G]	0.641
ACCGGAUGUGCUUUUCGGUCUGAUGAGUCUGUGAGGACGAAACAG [C15U C30U]	0.735
ACCGGAUGUGCUUUCCGGUCUGAUGAGUCAGUGAGGACGAGACAG [C30A A41G]	0.347
ACCGGAUGUGCUUUCCGGUAUGAUGAGUCCGUGAGGACCAAACAG [C20A G39C]	0.393
ACCGGAUGAGCUUUCCGGUCUGAUGAGUCCGUGAGGACGAAAGAG [U9A C43G]	0.458
ACCGGAUGUGCUUUCCGGUCUAAUGAGUCCGUGAGGACGAAACAU [G22A G45U]	0.383
ACCGGAUGUACUUUCCGGUCUGAUGAGUCCCUGAGGACGAAACAG [G10A G31C]	1.16
ACCGGAUGUGCUUUCCGGUCUGAGGAGUUCGUGAGGACGAAACAG [U24G C29U]	0.987
ACCGGAUGUGCUUUCCGGUCCGAUGCGUCCGUGAGGACGAAACAG [U21C A26C]	0.404

Variant	self-cleavage
ACCGGAUGUGCUUUCCGGUCUGAUGAGUCCGUGAGGCCGAGACAG [A37C A41G]	0.404
ACGGGAUGUGCUUUCCGGUCUGAUGAGUCCGUGGGGACGAAACAG [C3G A34G]	0.409
ACGGGAUGUGCUUUCCGGUCUGAUGAGUCCGUGUGGACGAAACAG [C3G A34U]	0.389
ACCGGAUGCGCUUUCCGGUCUGACGAGUCCGUGAGGACGAAACAG [U9C U24C]	0.94
ACCGGAUGUGCUUUCCGGUCUGAUGAGUCUGUGACGACGAAACAG [C30U G35C]	0.758
ACCGGAUGUGCUUUCCGGGCUGAUGAGUCUGUGAGGACGAAACAG [U19G C30U]	0.399
UCCGGAUGUGCUUUCCGGUCUGAUGAGUUCGUGAGGACGAAACAG [A1U C29U]	0.595
ACCGGAUGUGCUUUACGGUCUGAGGAGUCCGUGAGGACGAAACAG [C15A U24G]	0.743
GCCGGAUGUGCUUUACGGUCUGAUGAGUCCGUGAGGACGAAACAG [A1G C15A]	1.06
AUCGGAUGUGCUUUCCGGUCUGAUGAGUCCGUGAUGACGAAACAG [C2U G35U]	0.757
ACCGGAUGUGCUUUCCGGUCUGAUGAGUCCGUGCGGACGAGACAG [A34C A41G]	0.367
ACCGGAUGUGCUUUCCGGUCUGAUGACUCCGUGAGGACGAAACGG [G27C A44G]	0.988
ACCGGAUGGGCUGUCCGGUCUGAUGAGUCCGUGAGGACGAAACAG [U9G U13G]	0.802
ACCGGAUGUGCUUUCCGGUCUGAUGAGUGCGUGAGGACGAAACGG [C29G A44G]	0.82
ACCGGAUGUGCUUUCCGGUCGGAUUAGUCCGUGAGGACGAAACAG [U21G G25U]	0.373
ACCGGAUGUGCCUUCCGGUCUGAUGAGUCCGUGAGGACGAAACAC [U12C G45C]	0.73
ACCGGAUGUGGUUUCCGGUCUGAUGAGUCGGUGAGGACGAAACAG [C11G C30G]	1.22
ACCGGAUGUGCUUUCCGGUCUGAUGAGUCCGUGAGAAAGAAACAG [G36A C38A]	0.345
ACCGGACGUGUUUUCCGGUCUGAUGAGUCCGUGAGGACGAAACAG [U7C C11U]	0.433
ACCUGAUGUGCUUUCCGGUCUGCUGAGUCCGUGAGGACGAAACAG [G4U A23C]	0.257
ACCGGAUGUGCUUUCCGGUCUGAUGGGUCCGUGAGGACGAUACAG [A26G A41U]	0.25
ACCGGAUGAGCUAUCCGGUCUGAUGAGUCCGUGAGGACGAAACAG [U9A U13A]	1.62
